Laboratory results from US20140087995A1 (published 2014).
Numbered stars: 1 amine (or outer) side, 2 acyl side, 3 side chain; on linkers, the order of the positions; unused ones are H or OH. Bridge positions count the residues as written; N and C are the ends. Side chains are listed from the residue outwards. Ends that are not written are not given here. * marks the point of attachment. C20 diacid = O=C(O)CCCCCCCCCCCCCCCCCCC(=O)*; γGlu = O=C(O)[C@H](CCC(=O)[*:2])N[*:1]; AEEA = NCCOCCOCC(=O)O

T1: human calcitonin receptor (human, UniProt P30988 25-474)
T1 construct: whole, on cells; also called hCTR; hCT
T1 sequence (looked up): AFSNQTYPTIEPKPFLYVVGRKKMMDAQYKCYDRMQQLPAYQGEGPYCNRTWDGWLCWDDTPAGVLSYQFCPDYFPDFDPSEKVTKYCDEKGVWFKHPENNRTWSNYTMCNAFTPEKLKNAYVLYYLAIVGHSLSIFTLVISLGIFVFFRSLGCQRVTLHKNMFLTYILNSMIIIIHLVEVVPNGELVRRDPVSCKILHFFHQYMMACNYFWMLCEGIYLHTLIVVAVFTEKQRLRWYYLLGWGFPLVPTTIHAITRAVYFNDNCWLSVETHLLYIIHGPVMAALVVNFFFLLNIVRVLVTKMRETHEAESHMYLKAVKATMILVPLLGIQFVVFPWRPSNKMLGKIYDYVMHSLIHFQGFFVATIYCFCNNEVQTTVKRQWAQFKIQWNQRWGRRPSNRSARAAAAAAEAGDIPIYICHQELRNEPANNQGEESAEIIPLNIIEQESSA


Biological target: T1, human calcitonin receptor
Test: SPA competition with 125I-calcitonin, membranes of BHK hCTR cells (Assay VII)
Procedure, shortened: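 BHK hCTR membranes 35 ng/μL + SPA beads 0.05 mg/well; buffer 50 mM Hepes pH 7.4, 1 mM CaCl2, 5 mM MgCl₂, 0.1% OA, 0.02% Tween20. 120 min, 25° C., shaking. Scintillation count; IC50 by one-site binding competition.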

Binder | IC50 [nM]
K([γGlu-γGlu-C20 diacid])CNTATCATQRLADFLRHSSPNFGAIPSSTNVGSDTY-NH2 (disulfide 2-7; N-terminus assumed; SMILES CC[C@H](C)[C@H](NC(=O)[C@H](C)NC(=O)CNC(=O)[C@H](Cc1ccccc1)NC(=O)[C@H](CC(N)=O)NC(=O)[C@@H]1CCCN1C(=O)[C@H](CO)NC(=O)[C@H](CO)NC(=O)[C@H](Cc1c[nH]cn1)NC(=O)[C@H](CCCNC(=N)N)NC(=O)[C@H](CC(C)C)NC(=O)[C@H](Cc1ccccc1)NC(=O)[C@H](CC(=O)O)NC(=O)[C@H](C)NC(=O)[C@H](CC(C)C)NC(=O)[C@H](CCCNC(=N)N)NC(=O)[C@H](CCC(N)=O)NC(=O)[C@@H](NC(=O)[C@H](C)NC(=O)[C@@H]1CSSC[C@H](NC(=O)[C@@H](N)CCCCNC(=O)CC[C@H](NC(=O)CC[C@H](NC(=O)CCCCCCCCCCCCCCCCCCC(=O)O)C(=O)O)C(=O)O)C(=O)N[C@@H](CC(N)=O)C(=O)N[C@@H]([C@@H](C)O)C(=O)N[C@@H](C)C(=O)N[C@@H]([C@@H](C)O)C(=O)N1)[C@@H](C)O)C(=O)N1CCC[C@H]1C(=O)N[C@@H](CO)C(=O)N[C@@H](CO)C(=O)N[C@H](C(=O)N[C@@H](CC(N)=O)C(=O)N[C@H](C(=O)NCC(=O)N[C@@H](CO)C(=O)N[C@@H](CC(=O)O)C(=O)N[C@H](C(=O)N[C@@H](Cc1ccc(O)cc1)C(N)=O)[C@@H](C)O)C(C)C)[C@@H](C)O, also called compound 2) | 19.5
K([γGlu-C20 diacid])CNTATCATQRLAHFLRHSSPNFGAIPSSTNVGPNTY-NH2 (disulfide 2-7; N-terminus assumed; SMILES CC[C@H](C)[C@H](NC(=O)[C@H](C)NC(=O)CNC(=O)[C@H](Cc1ccccc1)NC(=O)[C@H](CC(N)=O)NC(=O)[C@@H]1CCCN1C(=O)[C@H](CO)NC(=O)[C@H](CO)NC(=O)[C@H](Cc1c[nH]cn1)NC(=O)[C@H](CCCNC(=N)N)NC(=O)[C@H](CC(C)C)NC(=O)[C@H](Cc1ccccc1)NC(=O)[C@H](Cc1c[nH]cn1)NC(=O)[C@H](C)NC(=O)[C@H](CC(C)C)NC(=O)[C@H](CCCNC(=N)N)NC(=O)[C@H](CCC(N)=O)NC(=O)[C@@H](NC(=O)[C@H](C)NC(=O)[C@@H]1CSSC[C@H](NC(=O)[C@@H](N)CCCCNC(=O)CC[C@H](NC(=O)CCCCCCCCCCCCCCCCCCC(=O)O)C(=O)O)C(=O)N[C@@H](CC(N)=O)C(=O)N[C@@H]([C@@H](C)O)C(=O)N[C@@H](C)C(=O)N[C@@H]([C@@H](C)O)C(=O)N1)[C@@H](C)O)C(=O)N1CCC[C@H]1C(=O)N[C@@H](CO)C(=O)N[C@@H](CO)C(=O)N[C@H](C(=O)N[C@@H](CC(N)=O)C(=O)N[C@H](C(=O)NCC(=O)N1CCC[C@H]1C(=O)N[C@@H](CC(N)=O)C(=O)N[C@H](C(=O)N[C@@H](Cc1ccc(O)cc1)C(N)=O)[C@@H](C)O)C(C)C)[C@@H](C)O, also called compound 67) | 4.63
{C20 diacid-γGlu}-GRCNTATCATQRLANFLRHSSPNFGAIPSSTNVGSHTY-NH2 (disulfide 3-8; SMILES CC[C@H](C)[C@H](NC(=O)[C@H](C)NC(=O)CNC(=O)[C@H](Cc1ccccc1)NC(=O)[C@H](CC(N)=O)NC(=O)[C@@H]1CCCN1C(=O)[C@H](CO)NC(=O)[C@H](CO)NC(=O)[C@H](Cc1c[nH]cn1)NC(=O)[C@H](CCCNC(=N)N)NC(=O)[C@H](CC(C)C)NC(=O)[C@H](Cc1ccccc1)NC(=O)[C@H](CC(N)=O)NC(=O)[C@H](C)NC(=O)[C@H](CC(C)C)NC(=O)[C@H](CCCNC(=N)N)NC(=O)[C@H](CCC(N)=O)NC(=O)[C@@H](NC(=O)[C@H](C)NC(=O)[C@@H]1CSSC[C@H](NC(=O)[C@H](CCCNC(=N)N)NC(=O)CNC(=O)CC[C@H](NC(=O)CCCCCCCCCCCCCCCCCCC(=O)O)C(=O)O)C(=O)N[C@@H](CC(N)=O)C(=O)N[C@@H]([C@@H](C)O)C(=O)N[C@@H](C)C(=O)N[C@@H]([C@@H](C)O)C(=O)N1)[C@@H](C)O)C(=O)N1CCC[C@H]1C(=O)N[C@@H](CO)C(=O)N[C@@H](CO)C(=O)N[C@H](C(=O)N[C@@H](CC(N)=O)C(=O)N[C@H](C(=O)NCC(=O)N[C@@H](CO)C(=O)N[C@@H](Cc1c[nH]cn1)C(=O)N[C@H](C(=O)N[C@@H](Cc1ccc(O)cc1)C(N)=O)[C@@H](C)O)C(C)C)[C@@H](C)O, also called compound 47) | 15.5

More lines, in order of falling IC50, values ahead:

IC50 [nM] | Binder
102 | KCNTATCATQRLANFLRHSSPNFGAIPSSTNVGSNTY (C20 diacid-gGlu-2xOEG on alpha amino group of N-terminal Lys 1; disulfide Cys2-Cys7; C-terminal amide (as human amylin), also called compound 24)
21.3 | K([AEEA-γGlu-C20 diacid])CNTATCATQRLANFLRHSSPNFGAIPSSTNVGSNTY-NH2 (disulfide 2-7; N-terminus assumed; SMILES CC[C@H](C)[C@H](NC(=O)[C@H](C)NC(=O)CNC(=O)[C@H](Cc1ccccc1)NC(=O)[C@H](CC(N)=O)NC(=O)[C@@H]1CCCN1C(=O)[C@H](CO)NC(=O)[C@H](CO)NC(=O)[C@H](Cc1c[nH]cn1)NC(=O)[C@H](CCCNC(=N)N)NC(=O)[C@H](CC(C)C)NC(=O)[C@H](Cc1ccccc1)NC(=O)[C@H](CC(N)=O)NC(=O)[C@H](C)NC(=O)[C@H](CC(C)C)NC(=O)[C@H](CCCNC(=N)N)NC(=O)[C@H](CCC(N)=O)NC(=O)[C@@H](NC(=O)[C@H](C)NC(=O)[C@@H]1CSSC[C@H](NC(=O)[C@@H](N)CCCCNC(=O)COCCOCCNC(=O)CC[C@H](NC(=O)CCCCCCCCCCCCCCCCCCC(=O)O)C(=O)O)C(=O)N[C@@H](CC(N)=O)C(=O)N[C@@H]([C@@H](C)O)C(=O)N[C@@H](C)C(=O)N[C@@H]([C@@H](C)O)C(=O)N1)[C@@H](C)O)C(=O)N1CCC[C@H]1C(=O)N[C@@H](CO)C(=O)N[C@@H](CO)C(=O)N[C@H](C(=O)N[C@@H](CC(N)=O)C(=O)N[C@H](C(=O)NCC(=O)N[C@@H](CO)C(=O)N[C@@H](CC(N)=O)C(=O)N[C@H](C(=O)N[C@@H](Cc1ccc(O)cc1)C(N)=O)[C@@H](C)O)C(C)C)[C@@H](C)O, also called compound 41)
19.9 | {C20 diacid-γGlu}-KCNTATCATQRLAEFLRHSSPNFGPILPPTNVGSNTY-NH2 (disulfide 2-7; SMILES CC[C@H](C)[C@H](NC(=O)[C@@H]1CCCN1C(=O)CNC(=O)[C@H](Cc1ccccc1)NC(=O)[C@H](CC(N)=O)NC(=O)[C@@H]1CCCN1C(=O)[C@H](CO)NC(=O)[C@H](CO)NC(=O)[C@H](Cc1c[nH]cn1)NC(=O)[C@H](CCCNC(=N)N)NC(=O)[C@H](CC(C)C)NC(=O)[C@H](Cc1ccccc1)NC(=O)[C@H](CCC(=O)O)NC(=O)[C@H](C)NC(=O)[C@H](CC(C)C)NC(=O)[C@H](CCCNC(=N)N)NC(=O)[C@H](CCC(N)=O)NC(=O)[C@@H](NC(=O)[C@H](C)NC(=O)[C@@H]1CSSC[C@H](NC(=O)[C@H](CCCCN)NC(=O)CC[C@H](NC(=O)CCCCCCCCCCCCCCCCCCC(=O)O)C(=O)O)C(=O)N[C@@H](CC(N)=O)C(=O)N[C@@H]([C@@H](C)O)C(=O)N[C@@H](C)C(=O)N[C@@H]([C@@H](C)O)C(=O)N1)[C@@H](C)O)C(=O)N[C@@H](CC(C)C)C(=O)N1CCC[C@H]1C(=O)N1CCC[C@H]1C(=O)N[C@H](C(=O)N[C@@H](CC(N)=O)C(=O)N[C@H](C(=O)NCC(=O)N[C@@H](CO)C(=O)N[C@@H](CC(N)=O)C(=O)N[C@H](C(=O)N[C@@H](Cc1ccc(O)cc1)C(N)=O)[C@@H](C)O)C(C)C)[C@@H](C)O, also called compound 6)
2.64 | K([AEEA-C20 diacid])CNTATCATQRLANFLRHSSPNFGAIPSSTNVGSNTY-NH2 (disulfide 2-7; N-terminus assumed; SMILES CC[C@H](C)[C@H](NC(=O)[C@H](C)NC(=O)CNC(=O)[C@H](Cc1ccccc1)NC(=O)[C@H](CC(N)=O)NC(=O)[C@@H]1CCCN1C(=O)[C@H](CO)NC(=O)[C@H](CO)NC(=O)[C@H](Cc1c[nH]cn1)NC(=O)[C@H](CCCNC(=N)N)NC(=O)[C@H](CC(C)C)NC(=O)[C@H](Cc1ccccc1)NC(=O)[C@H](CC(N)=O)NC(=O)[C@H](C)NC(=O)[C@H](CC(C)C)NC(=O)[C@H](CCCNC(=N)N)NC(=O)[C@H](CCC(N)=O)NC(=O)[C@@H](NC(=O)[C@H](C)NC(=O)[C@@H]1CSSC[C@H](NC(=O)[C@@H](N)CCCCNC(=O)COCCOCCNC(=O)CCCCCCCCCCCCCCCCCCC(=O)O)C(=O)N[C@@H](CC(N)=O)C(=O)N[C@@H]([C@@H](C)O)C(=O)N[C@@H](C)C(=O)N[C@@H]([C@@H](C)O)C(=O)N1)[C@@H](C)O)C(=O)N1CCC[C@H]1C(=O)N[C@@H](CO)C(=O)N[C@@H](CO)C(=O)N[C@H](C(=O)N[C@@H](CC(N)=O)C(=O)N[C@H](C(=O)NCC(=O)N[C@@H](CO)C(=O)N[C@@H](CC(N)=O)C(=O)N[C@H](C(=O)N[C@@H](Cc1ccc(O)cc1)C(N)=O)[C@@H](C)O)C(C)C)[C@@H](C)O, also called compound 43) [N^ε1-[2-[2-[2-(19-carboxynonadecanoylamino)ethoxy]ethoxy]acetyl]-[Arg17,Pro21,Pro27]-h-amylin]
